Where a chain is given by its changes, count along the chain named.
B1: MS-112 (antibody)
VH: not shown
VL: DFVLTQSPHSLSVTPGEPASISCKSSHSLIHGDRNNYLAWYVQKPGRSPQLLIYLASSRASGVPDRFSGSGSGKDFTLKISRVEAEDVGTYYCMQGRESPWTFGQGTKVDIKRTVAAPSVFIFPPSDEQLKSGTASVVCLLNNFYPREAKVQWKVDNALQSGNSQESVTEQDSKDSTYSLSSTLTLSKADYEKHKVYACEVTHQGLSSPVTKSFNRGEC
B2: MS-93 (antibody)
VH: not shown
VL: B1 VL with F2I, H9L, P18S, G73D, A85T
B3: MS-115 (antibody)
VH: not shown
VL: B1 VL with F2I, H9L, P18S
B4: MS-94 (antibody)
VH: not shown
VL: B1 VL with F2I, G73D, A85T
B5: MS-114 (antibody)
VH: not shown
VL: B1 VL with F2I, H9L, G73D
B6: MS-117 (antibody)
VH: not shown
VL: B1 VL with H9L
B7: MS-116 (antibody)
VH: not shown
VL: B1 VL with F2I
B8: MS-118 (antibody)
VH: not shown
VL: B1 VL with F2I, H9L
B9: MS-113 (antibody)
VH: not shown
VL: B1 VL with F2I, H9L, A85T
B10: MS-91 (antibody, V domains shown)
VH: QVQLVQSGPEVRKPGTSVKVSCKASGYTLKTYDLHWVRSVPGQGLQWMGWISHEGDKKVIVERFKAKVTIDWDRSTNTAYLQLSGLTSGDTAVYYCAKGSKHRLRDYALYDDDGALNWAVDVDYLSNLEFWGQGTAVTVSS
VL: DFVLTQSPLSLSVTPGESASISCKSSHSLIHGDRNNYLAWYVQKPGRSPQLLIYLASSRASGVPDRFSGSGSDTDFTLKISRVETEDVGTYYCMQGRESPWTFGQGTKVDIKR
B11: MS-92 (antibody, V domains shown)
VH: B10 VH with S25P, Y27N, Q46E, W72R, T87R
VL: B10 VL with F2I, L9H, T74K

biological target: HIV-1 envelope glycoprotein of pseudovirus DU172.17 (HIV-1); experiment: cell-based or functional assay

Row | Binder | IC50 (neutralization in TZM.bl cells) [µg/mL] | IC80 (neutralization in TZM.bl cells) [µg/mL]
1 | B1 | 1.77 | 4.91
2 | B2 | 3.24 | 9.14
3 | B3 | 1.83 | 5.04
4 | B4 | 3.03 | 11.2
5 | B5 | 1.66 | 7.74
6 | B6 | 1.91 | 6.49
7 | B7 | 1.97 | 6.71
8 | B8 | 2.12 | 8.29
9 | B9 | 2.22 | 8.27

biological target: HIV-1 envelope glycoprotein of pseudovirus 0260.v5.c36 (HIV-1); experiment: cell-based or functional assay

Row | Binder | IC50 (neutralization in TZM.bl cells) [µg/mL] | IC80 (neutralization in TZM.bl cells) [µg/mL]
10 | B1 | 0.022 | 0.059
11 | B2 | 0.034 | 0.116
12 | B3 | 0.025 | 0.067
13 | B4 | 0.027 | 0.095
14 | B5 | 0.03 | 0.105
15 | B6 | 0.021 | 0.057
16 | B7 | 0.024 | 0.067
17 | B8 | 0.019 | 0.069
18 | B9 | 0.026 | 0.092

biological target: HIV-1 envelope glycoprotein of pseudovirus BB1012-11.TC21 (HIV-1); experiment: cell-based or functional assay

Row | Binder | IC50 (neutralization in TZM.bl cells) [µg/mL] | IC80 (neutralization in TZM.bl cells) [µg/mL]
19 | B1 | 0.032 | 0.129
20 | B2 | 0.034 | 0.118
21 | B3 | 0.024 | 0.106
22 | B4 | 0.055 | 0.146
23 | B5 | 0.033 | 0.136
24 | B6 | 0.03 | 0.099
25 | B7 | 0.03 | 0.139
26 | B8 | 0.036 | 0.117
27 | B9 | 0.026 | 0.109

biological target: HIV-1 envelope glycoprotein of pseudovirus CNE52 (HIV-1); experiment: cell-based or functional assay

Row | Binder | IC50 (neutralization in TZM.bl cells) [µg/mL] | IC80 (neutralization in TZM.bl cells) [µg/mL]
28 | B1 | 0.133 | 1.16
29 | B2 | 0.636 | 5.6
30 | B3 | 0.489 | 5.46
31 | B4 | 0.455 | 5.18
32 | B5 | 0.444 | 3.61
33 | B6 | 0.206 | 1.73
34 | B7 | 0.321 | 3.09
35 | B8 | 0.42 | 3.4
36 | B9 | 0.502 | 5.04

biological target: HIV-1 envelope glycoprotein of pseudovirus RHPA4259.7 (HIV-1); experiment: cell-based or functional assay

Row | Binder | IC50 (neutralization in TZM.bl cells) [µg/mL] | IC80 (neutralization in TZM.bl cells) [µg/mL]
37 | B1 | 0.195 | 0.661
38 | B2 | 0.358 | 1.6
39 | B3 | 0.237 | 0.647
40 | B4 | 0.358 | 0.985
41 | B5 | 0.237 | 1.24
42 | B6 | 0.201 | 0.715
43 | B7 | 0.187 | 0.663
44 | B8 | 0.164 | 0.785
45 | B9 | 0.206 | 0.696

biological target: HIV-1 envelope glycoprotein of pseudovirus SC422661.8 (HIV-1); experiment: cell-based or functional assay

Row | Binder | IC50 (neutralization in TZM.bl cells) [µg/mL] | IC80 (neutralization in TZM.bl cells) [µg/mL]
46 | B1 | 0.275 | 1.44
47 | B2 | 0.333 | 2.71
48 | B3 | 0.202 | 1.03
49 | B4 | 0.315 | 1.23
50 | B5 | 0.236 | 2.21
51 | B6 | 0.168 | 1.33
52 | B7 | 0.185 | 1.06
53 | B8 | 0.244 | 2.05
54 | B9 | 0.354 | 2.12

biological target: HIV-1 pseudovirus X1193_c1 (HIV-1); experiment: cell-based or functional assay

Row | Binder | IC50 (neutralization in TZM.bl cells) [µg/mL] | IC80 (neutralization in TZM.bl cells) [µg/mL]
55 | B10 | 0.057 | 0.388
56 | B11 | 0.11 | 0.529

biological target: HIV-1 pseudovirus AC10.0.29 (HIV-1); experiment: cell-based or functional assay

Row | Binder | IC50 (neutralization in TZM.bl cells) [µg/mL] | IC80 (neutralization in TZM.bl cells) [µg/mL]
57 | B10 | 0.07 | 0.632
58 | B11 | 0.051 | 0.446

biological target: HIV-1 pseudovirus 6952.v1.c20 (HIV-1); experiment: cell-based or functional assay

Row | Binder | IC50 (neutralization in TZM.bl cells) [µg/mL] | IC80 (neutralization in TZM.bl cells) [µg/mL]
59 | B10 | 2.62 | > 25
60 | B11 | 7.38 | > 25

biological target: HIV-1 pseudovirus Ce1176_A3 (HIV-1); experiment: cell-based or functional assay

Row | Binder | IC50 (neutralization in TZM.bl cells) [µg/mL] | IC80 (neutralization in TZM.bl cells) [µg/mL]
61 | B10 | 0.213 | 2.04
62 | B11 | 0.6 | 9.78

biological target: HIV-1 pseudovirus SC05.8C11.2344 (HIV-1); experiment: cell-based or functional assay

Row | Binder | IC50 (neutralization in TZM.bl cells) [µg/mL] | IC80 (neutralization in TZM.bl cells) [µg/mL]
63 | B10 | 0.848 | 2.84
64 | B11 | 1.54 | 4.09

biological target: HIV-1 pseudovirus 263-8 (HIV-1); experiment: cell-based or functional assay

Row | Binder | IC50 (neutralization in TZM.bl cells) [µg/mL] | IC80 (neutralization in TZM.bl cells) [µg/mL]
65 | B10 | 0.02 | 0.075
66 | B11 | 0.024 | 0.208
